Here are results for six molecules from patent US20250147051A1, “METHOD FOR DETECTING A TAU PROTEIN IN A SALIVA SAMPLE” (GTINVENT LIMITED, priority 2022, published 2025).

One assay deals with dGA (Homo sapiens, UniProt P10636). Description: Biacore X100 SPR binding kinetics of anti-tau scAbs (scAb captured via HuCk), analyte dGA. To be noted: lead scAbs; for ka: Table 24; for dissociation rate constant (kd): Table 24, dissociation rate. How it is done:
Surface plasmon resonance (SPR) is widely regarded as the gold standard for real time measurement of protein-protein interactions such as antibody binding. All SPR experiments were carried out using a Biacore X100 machine and HBS EP+ running buffer (GE Healthcare). A ‘capture’ method was followed for affinity measurements, where an anti-human constant kappa chain (HuCk) antibody was conjugated to the surface of a CM5 sensor chip using an amine coupling kit and scAb molecules were immobilised via their HuCk domain. Amine coupling is a very common approach for immobilising the ligand to the chip surface. The chip surface has a dextran matrix derivatised with carboxyl groups, which after activation with N-hydroxysuccinimide (NHS) and 1-ethyl-3-(3-dimethylaminopropyl) carbodiimide (EDC), form reactive succinimide esters which allows the covalent capturing of the ligand via any available primary amine groups (e.g. Lysine) on the ligand (in this case anti-HuCk antibody). The capture antibody was diluted 1/100 in 10 mM Sodium acetate buffer pH 5.0 and passed over the activated chip surface for a period of at least 420 s. Final ligand immobilisation levels over 12,000 RU were deemed to be satisfactory.
Following immobilisation, the level of each scAb to be captured was identified using the standard SPR equation with a theoretical RMax of 100 RU. Analyte MW refers to the molecular weight of hT40 or dGA/dGAE molecules, while ligand MW refers to the molecular weight of the scAbs tested. RLis the desired capture level and S refers to the stoichiometric ratio:
The scAb to be tested was added only to flow cell 2 so that flow cell 1 could act as a control to subtract any interaction with the analyte and the chip surface. Both single and multi-cycle runs were utilised using wizards developed in the Biacore X100 control software which are both accepted methods of kinetic analysis (Karlsson, R., et al. Analyzing a kinetic titration series using affinity biosensors (2006) Analytical Biochemistry 349:136-47). The multi-cycle protocol was as follows-Three start-up cycles composed of an initial capture, to the desired level, of the scAb to be tested was performed followed by a 30 s injection of glycine buffer pH 2.0 after each cycle to regenerate the chip surface. The regeneration step removed any captured scAb whilst leaving the capture antibody intact and able to repeat the capture for the next cycle. Following three start-up cycles increasing concentrations (0.15625 nM-100 nM) of the target to be tested were added to the chip surface after the desired scAb capture. The target was added for a 120 s association period and 420 s dissociation period followed by another regeneration, 30 s injection of glycine buffer pH 2.0 in between each cycle.
The single cycle kinetics protocol was similar and utilised the same level of scAb capture. Three start-up cycles were used followed by 5 increasing concentrations of the analyte (6.25 nM-100 nM) for an association period of 120 s followed by a dissociation period of 420 s for each concentration. In single cycle kinetics the regeneration step was performed only after the final analyte concentration was added. Binding responses were analysed in Biacore X100 evaluation software and data fitted to a 1:1 binding model to obtain kinetic and affinity characterisation.

The target of the next assay is T1, dGAE aggregates (Homo sapiens, UniProt P10636).
T1 construct: host or cells: aggregated in house: 100 μM dGAE with DTT, 700 rpm, 37 °C, 24 h
T1 sequence (P10636 614-708): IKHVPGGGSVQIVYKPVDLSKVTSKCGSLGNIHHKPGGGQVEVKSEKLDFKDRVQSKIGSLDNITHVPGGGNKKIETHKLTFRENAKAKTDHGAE
The assay is described as follows: Sandwich ELISA LoD for SDS Triton X-100 treated dGAE aggregates. Type of assay: binding. As to conditions: label = detection scAb. How it is done:
For aggregation, 1000 μL 100 μM dGAE+10 μL 10 mM DTT was added to a ‘LoBind’ microfuge tubes and agitated at 700 RPM/37° C. for 24 hours. Resulting sample centrifuged at 17,000×g/4° C. for 60 min and supernatant discarded to remove left over monomer. Pellet resuspended in half the original volume for future experiments and hereafter referred to as ‘aggregates’. 1 μl of aggregates was added to 1 ml of PBS and SDS was added to a final concentration of 1% (w/v). This was left to incubate on lab bench for 1 h with gentle agitation every 15 minutes. In order to neutralise the SDS effect on ELISA, Triton X-100 added to a final concentration of 3% (v/v) and mixed gently by pipetting to prevent any bubble formation. 200 μl added of this mix was to the first well of an ELISA plate coated with 1 μg/ml S1D12 mAb and blocked with 2% MPBS. Similarly aggregates treated with only SDS or Triton X-100, untreated aggregates, dGAE monomers treated with only SDS or SDS+Titon X-100 were also added to designated wells as controls. All samples were then double diluted across the plate in final volumes of 100 μl. The final column was left with no protein to act as a blank. This was allowed to stand at room temperature for 1 hour followed by the addition of detection scAb-S1G2 at 10 μg/ml. Anti-HuCk HRP labelled secondary antibody was added as described previously and ELISA data generated was represented using the graph below. In addition, limits of detection (LoD) of various core binding antibody pairing for SDS Triton X-100 treated dGAE aggregates were calculated using the above describe ELISA method and substituting capture mAbs and detection scAbs as shown in Table 30.
In general terms: ELISA stands for enzyme-linked immunosorbent assay.

The test system of another assay is core region tau. The assay is described as follows: S1D12 immunotherapy 6-week repeat-dose mouse study, plasma tau by CA4-S1G2 core-core Simoa assay. In kind it is in vivo. To be noted: 30 mg/kg i.p. once per week for six weeks, CA4-S1G2 Simoa. How it is done:
A total of 12 wildtype, 12 Line 1 and 12 Line 66 female mice were used in this study—Line 1 and Line 66 are transgenic mouse models of tauopathy (Melis et al., 2015). Animals were 2 months old at the beginning of the study. Mice of each genotype were injected intraperitoneally (i.p.) with either vehicle or S1D12 mAb (30 mg/kg), once per week, for six consecutive weeks.
Seven days post final dose, cardiac puncture blood sampling was performed. mice were anaesthetised using an overdose of sodium pentobarbital (i.p.) and blood was collected via cardiac puncture through a Plastipak syringe pre-rinsed with heparinised saline (10 U/mL) and transferred into a plastic vial containing lithium heparin anticoagulant. Blood samples were centrifuged to obtain plasma at 2,000×g for 5 min at 6° C.
In order to monitor the ‘treatment effect’ of S1D12 mAb, plasma tau of vehicle control and antibody treated L66^+/+ mice were assessed via a core-core homebrew Simoa® assay to investigate changes in core tau pools in these mice.

The test system of a further assay is tau. The assay is described as follows: Western blot of mouse brain homogenates (WT, L66+/+, L1+/+). To be noted: 20 μg brain homogenate protein, 5-month-old WT, L1+/+ mice. On the procedure:
Protein equivalent to 20 μg from each brain extract was separated using 4-20% bis-tris gels and run in 1×MES buffer. […] A clear band is visible in the lanes containing L66^+/+ samples, but no other bands are detectable (WT or L1^+/+). […] Once again, a band having relative mobility of 65 kDa is visible in the L66 sample with no other reactive bands present.
This band most likely corresponds to endogenous mouse tau which is of a similar size. In the L66^+/+ samples, a second band running at approximately 68 kDa is also detected. The presence of numerous other bands indicates proteolytic truncation of tau within brain homogenates.
For orientation: Immunoblotting shows a protein as a band on a membrane.

Sequence of dGA (P10636 614-707): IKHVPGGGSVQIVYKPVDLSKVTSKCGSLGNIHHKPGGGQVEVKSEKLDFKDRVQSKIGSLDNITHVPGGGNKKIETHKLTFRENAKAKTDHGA

B1: NS2A1: anti-tau clone, SEQ ID NO: 220 (protein)
scFv: QVQLQESGPSLVKPSQTLSLTCTVSGFSLSTNSVGWVRQAPGKAPEWVAGIDTDGEEGFNPVLKSRLSITRDTSKSQVSLSLSNVTSEDTAVYYCGRSYRTDGLAYGYVQAIDYWGPGLLVTISSEGKSSGASGESKVDDQSVLTQPSSVSGSPGQTVSITCSGSYIGSSGVGWFQQLPGSGLRTIIVASDGRPSGVPDGFSMSKSGNTATLTISSLQAEDEADYFCGSSDRTQYTGLFGSGTRLTVLG
modifications: NS2A1 amino acid sequence
Consider B1, for which, in the assay with dGA, the ka was 188000 M⁻¹ s⁻¹ and the “dissociation rate constant (kd)” value was 0.00102 s⁻¹.

B2: S1E12: anti-tau clone, SEQ ID NO: 218 (protein)
scFv: QVQLQESGPSLVKPSQTLSLTCTVSGFSLGSNSVGWVRQAPGKAPEWVAGIDTDGEEGYNPALNSRLSITRDTSKSQVSLSLSSVTSEDTAVYYCGRSYRADGLAYGYVQAIDYWGPGLLVTVSSEGKSSGASGESKVDDRVVRTQPSSVSGSLGQRVSITCSGSFIGISSVGWFQQLPGSGLRTIIVASDGRPSGVPDRFSMSKSGNTATLTISSLQAEDEADYFCGSSDRTQYTGVFGSGTRLTVLG
modifications: S1E12 amino acid sequence
For the molecule B2, in the assay with dGA, the ka turned out to be 2.99e+06 M⁻¹ s⁻¹ and the “dissociation rate constant (kd)” value is 0.001627 s⁻¹.

B3: CA9: anti-tau clone, SEQ ID NO: 371 (protein)
scFv: QVQLQESGPSLVKPSQTLSLTCTVSGFSLTSNSVGWVRQAPGKAPEWVAGIDTDGEEGYNPALNSRLSITRDTSKSQVSLSLSSVTSEDTAVYYCGRSYRSDGLAYGYVQAIDYWGPGLLVTVSSEGKSSGASGESKVDDQAVLTQPASVSGSLGQRVSITCSGSFIGISSVGWFQQLPGSGLRTIIVASDGRPSGVPDRFSMSKSGNTATLTISSLQAEDEADYFCGSSDRTQYTGVFGSGTRLTVLG
modifications: CA9 amino acid sequence
As for B3, in the assay with dGAE aggregates, the “LoD, S1D12 mAb capture, +SDS Triton dGAE agg.” value worked out at 4 ng/mL and the “LoD, direct immobilisation of dGAE aggregates, +SDS Triton dGAE agg.” value was determined as 40 ng/mL.

B4: CA12: anti-tau clone, SEQ ID NO: 372 (protein)
scFv: QVQLQGSGPSLVKPSQTLSLTCTVSGFSFDSYYVGWVRQAPGKALEWLGNIYSTGRAFYNPALKSRLSITRDTSKSQVSLSVSSVTIEDTALYYCVRGSYYHGGGNGMVDFFDYWSPGLLVTVSSEGKSSGASGESKVDDQVVRTQPSSVSGSLGQRVSITCSGSSSNVGYGNYVGWFQQVPGSAPKLLIYAATSRASGVPDRFSGSRSGNTATLTIDSLQAEDEADYYCSSYQRGNTGVFGSGTRLTVLG
modifications: CA12 amino acid sequence
For the molecule B4, in the assay with dGAE aggregates, the “LoD, S1D12 mAb capture, +SDS Triton dGAE agg.” value was 2 ng/mL and the “LoD, direct immobilisation of dGAE aggregates, +SDS Triton dGAE agg.” value was determined as 16 ng/mL.

B5: S1D12 mAb: S1D12 reformatted as mAb; heavy chain SEQ ID NO: 445, light chain SEQ ID NO: 446 (antibody)
heavy: QVQLQESGPSLVKPSQTLSLTCTVSGFSLNNNAVGWVRQAPGKVPESLVGCSSDGTCYYNSALKSRLDITRDTSKNQISLSLSSVTTDDAAVYYCTRGHYSIYGYDYLGTIDYWGPGLLVTVSSAKTTAPSVYPLAPVCGDTTGSSVTLGCLVKGYFPEPVTLTWNSGSLSSGVHTFPAVLQSDLYTLSSSVTVTSSTWPSQSITCNVAHPASSTKVDKKIEPRGPTIKPCPPCKCPAPNLLGGPSVFIFPPKIKDVLMISLSPIVTCVVVDVSEDDPDVQISWFVNNVEVHTAQTQTHREDYNSTLRVVSALPIQHQDWMSGKEFKCKVNNKDLPAPIERTISKPKGSVRAPQVYVLPPPEEEMTKKQVTLTCMVTDFMPEDIYVEWTNNGKTELNYKNTEPVLDSDGSYFMYSKLRVEKKNWVERNSYSCSVVHEGLHNHHTTKSFSRTPGK
light: QAVLTQPSSVSGSLGQRVSITCSGSSSNVGGGNSVGWYQHLPGSGLKTIIYDTNSRPSGVPDRFSGSRSGNTATLTINSLQAEDEGDYYCVTGDSTTHDDLVGSGTRLTVLGGQPKSSPSVTLFPPSSEELETNKATLVCTITDFYPGVVTVDWKVDGTPVTQGMETTQPSKQSNNKYMASSYLTLTARAWERHSSYSCQVTHEGHTVEKSLSRADCS
modifications: S1D12 mAB Heavy Chain; S1D12 mAB Light Chain
In the case of B5, the “plasma tau, wildtype mice with treatment” value with core region tau is 3.57 (0.22) ng/ml. Besides, the “plasma tau, L1 mice with S1D12 treatment” value in the assay with core region tau (above upper limit of detection) was more than 100 ng/mL.

B6: CC7: anti-tau clone, SEQ ID NO: 365 (protein)
scFv: QVQLQESGPSLVKPSQTLSLTCTVSGFSLTSNAVIWVRQAPGKAPEWVALIDVDGDAAYDPALKSRLSITRDTSKSQVSLSLRSVTTEDTAVYYCARDYGSWGYVSDIDYWGPGLLVTVSSEGKSSGASGESKVDDRVVRTQPSSVSGSLGQRVSITCSGSYITGSSVGWFQQVPGSGLKTVIYDNNDRPSGVPDRFSGSKSGDTATLTISSLQAEDEADYYCASYDTSNIGLFGSGTRLTVLG
modifications: CC7 amino acid sequence
On to B6, for which, in the assay with tau, the Western blot reactivity entry is on record as “specificity for human tau”.
